In this experiment the target is α‐Synuclein (human, UniProt P37840 1-140). Briefly: fluorescence polarisation. To be noted: both partners purified.

Where no end group is shown, it is not given here. carboxyfluorescein = carboxyfluorescein at the N-terminus

The record followed here is article PMC8457056, “Remodeling of the Fibrillation Pathway of α‐Synuclein by Interaction with Antimicrobial Peptide LL‐III” (Chemistry (Weinheim an Der Bergstrasse, Germany), 2021).

For H-VNWKKILGKIIKVVK-NH2 [antimicrobial peptide LL‐III], the Ka turned out to be 37000 M⁻¹. With carboxyfluorescein-VNWKKILGKIIKVVK [carboxyfluorescein‐labeled LL‐III] the figure was 19000 M⁻¹.
